What was measured:
[1] = biological target: T1, M15-K(biotin)-AAR peptide (SEQ ID NO: 12)
T1 chain: KAAR

[2] = biological target: T2, M15-L-P1-AR target polypeptide with P1 = A
T2 chain: LAAR

[3] = biological target: T3, M15-L-P1-AR target polypeptide with P1 = I
T3 chain: LIAR

[4] = biological target: T4, M15-L-P1-AR target polypeptide with P1 = L
T4 chain: LLAR

[5] = biological target: T5, M15-L-P1-AR target polypeptide with P1 = M
T5 chain: LMAR

[6] = biological target: T6, M15-L-P1-AR target polypeptide with P1 = Q
T6 chain: LQAR

[7] = biological target: T7, M15-L-P1-AR target polypeptide with P1 = V
T7 chain: LVAR

[8] = biological target: T8, M15-L-P1-AR target polypeptide with P1 = D
T8 chain: LDAR

[9] = biological target: T9, M15-L-P1-AR target polypeptide with P1 = E
T9 chain: LEAR

B1: engineered dipeptidyl peptidase clone (SEQ ID NO: 6) derived from dipeptidyl peptidase from Thermomonas hydrothermalis (protein)
chain: DEGMWVPQQLPEIAGALKKAGLKLDPKQLSDLTGDPMGAVVSLGGCTGSFVSPQGLVATNHHCAYGAIQLNSTPEKNLIKDGFNAPTQADELSAGPNARIYVLEGITDVTAQAKAAMAAAGNDPVARANALEAFEKKITSDCEAEPGYRCRVYSFMGGITYRLFKNLEIKDVRLVYAPPSSVGKFGGDIDMGMWPTHTGDFSFYRAYVGKDGKPAPYSKDNVPYRPKHWLKIADTPLGEGDFVMVAGYPGRTDRYALVAEFENTQNWLYPAISKAYKDQIALVEAAAKDNPEIAVKYAAALAGWNRTSKNFDGQLEGFKRNDVLAIKRREEAAVLEWLRARGKAGTPALEAHAALVKLVADTARTQERDLVLGSFNRTGIIGVAVNLYRLAIERQKPDAEREPGYQQRDLPVIEGSLKQMERRYVPAMDRQLRAYWLDRYVALPAAQHVAAVDAWLGGSDKAAAEAALARLDQSRLGSLEERLKWFNADRAAFEASTDPAIQYAVAVMPTLLAMEQQAKTRYGVALEARPRYLQAVVDYKKSKGQAVYPDANSTLRITYGHVKGYTGLNGKVYTPFTTLEEVAAKETGVEPFDNPKALLEAVAAKRYAGLADARLGTVPVNFLADLDITGGNSGSPVLDANGRLVGLAFAVTLESVASNWVFDPVLTRMISVDQRYMRWIMQEVMPAPQLLEELGVPPRQ
percentage of conversion to cleavage product (HPLC, UV absorbance at 254 nm) [1]: about 10% of the model peptide was converted to the cleavage product, M15-K(biotin)-A

B2: M15-L_Z001 (first selected modified cleavase) (protein)
chain: MHKTRLVAALAAALATLAPAAWADEGMWVPQQLPEIAGALKKAGLKLDPKQLSDLTGDPMGAVVSLGGCTGSFVSPQGLVATNHHCAYGAIQLNSTPEKNLIKDGFNAPTQADELSAGPNARIYVLEGITDVTAQAKAAMAAAGNDPVARANALEAFEKKITSDCEAEPGYRCRVYSFMGGITYRLFKNLEIKDVRLVYAPPSSVGKFGGDIDMGMWPTHTGDFSFYRAYVGKDGKPAPYSKDNVPYRPKHWLKIADTPLGEGDFVMVAGYPGRTDRYALVAEFENTQNWLYPAISKAYKDQIALVEAAAKDNPEIAVKYAAALAGWNRTSKNFDGQLEGFKRNDVLAIKRREEAAVLEWLRARGKAGTPALEAHAALVKLVADTARTQERDLVLGSFNRTGIIGVAVNLYRLAIERQKPDAEREPGYQQRDLPVIEGSLKQMERRYVPAMDRQLRAYWLDRYVALPAAQHVAAVDAWLGGSDKAAAEAALARLDQSRLGSLEERLKWFNADRAAFEASTDPAIQYAVAVMPTLLAMEQQAKTRYGVALEARPRYLQAVVDYKKSKGQAVYPDANSTLRITYGHVKGYTGLNGKVYTPFTTLEEVAAKETGVEPFDNPKALLEAVAAKRYAGLADARLGTVPVNFLADLDITGGNSGSPVLDANGRLVGLAFAGTLESVASNWVFDPVLTRMISVDQRYMRWIMQEVMPAPQLLEELGVPPRQ
cleavage of the M15-L-labeled P1 residue from the polypeptide [2]: provided 100% cleavage for polypeptides with the following M15-L-labeled P1 residues: A, I, L, M, Q, V | cleavage of the M15-L-labeled P1 residue from the polypeptide [3]: provided 100% cleavage for polypeptides with the following M15-L-labeled P1 residues: A, I, L, M, Q, V | cleavage of the M15-L-labeled P1 residue from the polypeptide [4]: provided 100% cleavage for polypeptides with the following M15-L-labeled P1 residues: A, I, L, M, Q, V | cleavage of the M15-L-labeled P1 residue from the polypeptide [5]: provided 100% cleavage for polypeptides with the following M15-L-labeled P1 residues: A, I, L, M, Q, V | cleavage of the M15-L-labeled P1 residue from the polypeptide [6]: provided 100% cleavage for polypeptides with the following M15-L-labeled P1 residues: A, I, L, M, Q, V | cleavage of the M15-L-labeled P1 residue from the polypeptide [7]: provided 100% cleavage for polypeptides with the following M15-L-labeled P1 residues: A, I, L, M, Q, V

B3: M15-L_Z002 (protein)
chain: B2 chain
cleavage profile (cleavage efficiency) [8]: M15-L_Z002, having specificity towards D and E in the P1 position | cleavage profile (cleavage efficiency) [9]: M15-L_Z002, having specificity towards D and E in the P1 position
